According to article PMC5868259:

Target: PKA catalytic subunit (PKAc), recombinant (UniProt P05132)
Experiment: fluorescence polarisation; LiReC competition assay, R-subunit inhibition response without cAMP: 10.0 nM PKAc, 1 nM-1 μM bRIα (monomer), 1.67 nM [5/6-FAM]-IP20; 50 mM MOPS pH 7.0, 35 mM NaCl, 10 mM MgCl2, 1 mM ATP, 2 mM DTT, 0.005% Triton X-100

| IC50 | Kd | Substance |
| --- | --- | --- |
| 212 nM |  | recombinant bovine PKA regulatory subunit RIα (bRIα), S101E phosphomimetic mutant (from UniProt P00514 1-380) (natural protein) |
| 4.5 nM | < 10 nM | recombinant bovine PKA regulatory subunit RIα (bRIα), wildtype (from UniProt P00514 1-380) (natural protein) |
| 5.05 nM | < 10 nM | recombinant bovine PKA regulatory subunit RIα (bRIα), S101A mutant (from UniProt P00514 1-380) (natural protein) |
